This note sets out measurements from publication PMC7861563, “FOXP1 Interacts with MyoD to Repress its Transcription and Myoblast Conversion” (Journal of cellular signaling, 2021).

The target of assay [1] is MyoD, bacterially expressed (UniProt P10085).
In assay [2] the target is T1, Myoblast Determination protein 1 (MYOD1/MyoD), endogenous in C2C12 (mouse (endogenous in C2C12), UniProt P10085 1-318).
T1 sequence (looked up): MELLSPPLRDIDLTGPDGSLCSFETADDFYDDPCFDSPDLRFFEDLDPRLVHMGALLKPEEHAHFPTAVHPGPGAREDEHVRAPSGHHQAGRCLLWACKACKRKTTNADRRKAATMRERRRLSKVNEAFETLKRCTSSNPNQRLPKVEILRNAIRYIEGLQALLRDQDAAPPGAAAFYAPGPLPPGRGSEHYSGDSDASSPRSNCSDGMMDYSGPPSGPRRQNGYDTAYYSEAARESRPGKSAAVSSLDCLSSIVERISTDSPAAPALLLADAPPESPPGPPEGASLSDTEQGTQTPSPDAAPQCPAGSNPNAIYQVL
Kind of assay: cell-based or functional assay.

“GST-FOXP Forkhead domain (GST-Fkh) (domain or fragment)”: in assay [1], the EMSA titration: amount of GST-Fkh for full inhibition of DNA binding of MyoD homodimers (200ng/reaction) is 100 ng and the EMSA titration: amount of GST-Fkh for full inhibition of DNA binding of MyoD-E47N (MyoD 200ng, E47N 50ng/reaction) was found to be 400 ng.

B1: Forkhead Box P1 (FOXP1), endogenous in C2C12 (natural protein, mouse (endogenous in C2C12), UniProt P58462 1-705, looked up)
chain: MMQESGSETKSNGSAIQNGSSGGNHLLECGALRDTRSNGEAPAVDLGAADLAHVQQQQQQALQVARQLLLQQQQQQQQQQQQQQQQQQQQQQQQQQQQQQQQQQQQQVSGLKSPKRNDKQPALQVPVSVAMMTPQVITPQQMQQILQQQVLSPQQLQVLLQQQQALMLQQQLQEFYKKQQEQLQLQLLQQQHAGKQPKEQQVATQQLAFQQQLLQMQQLQQQHLLSLQRQGLLTIQPGQPALPLQPLAQGMIPTELQQLWKEVTSAHTAEETTSSNHSSLDLTSTCVSSSAPSKSSLIMNPHASTNGQLSVHTPKRESLSHEEHPHSHPLYGHGVCKWPGCEAVCDDFPAFLKHLNSEHALDDRSTAQCRVQMQVVQQLELQLAKDKERLQAMMTHLHVKSTEPKAAPQPLNLVSSVTLSKSASEASPQSLPHTPTTPTAPLTPVTQGPSVITTTSMHTVGPIRRRYSDKYNVPISSADIAQNQEFYKNAEVRPPFTYASLIRQAILESPEKQLTLNEIYNWFTRMFAYFRRNAATWKNAVRHNLSLHKCFVRVENVKGAVWTVDEVEFQKRRPQKISGNPSLIKNMQSSHAYCTPLNAALQASMAENSIPLYTTASMGNPTLGSLASAIREELNGAMEHTNSNESDSSPGRSPMQAVHPIHVKEEPLDPEEAEGPLSLVTTANHSPDFDHDRDYEDEPVNEDME
Take B1: in assay [2], the “MCK enhancer E box firefly luciferase reporter in 10T1/2 cells after 5-azacytidine, FOXP1 expression plasmid in varying amounts (highest input ~3-fold molar excess over MyoD)” value is around 20 fold and the “luciferase reporter driven by 2 E-box consensus MyoD binding sites (2R-luc) in differentiating C2C12, normalized to β-galactosidase” value is around 12 fold.
